The values below come from US20140325692, “BLUE-LIGHT INDUCIBLE SYSTEM FOR GENE EXPRESSION” (BOARD OF REGENTS, THE UNIVERSITY OF TEXAS SYSTEM, published 2014).

Settings in all cases: tags: His6-Gβ1 (pHis6-Gβ1-Parallel1); label: 5'-32P
Data set [1] concerns the target T1, EL222 (14-222) wild type (Erythrobacter litoralis, UniProt Q2NB98 SEQ:1-209).
T1 chain: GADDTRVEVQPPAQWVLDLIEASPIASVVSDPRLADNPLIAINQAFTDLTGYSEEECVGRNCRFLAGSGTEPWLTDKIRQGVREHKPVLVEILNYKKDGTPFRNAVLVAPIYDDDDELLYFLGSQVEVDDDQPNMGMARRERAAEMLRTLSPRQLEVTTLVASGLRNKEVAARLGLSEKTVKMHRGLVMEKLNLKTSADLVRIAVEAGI
The data set is described as follows: EMSA; light, 4 C, 3 mM MgCl2; 33 bp randomized region printed. Here is the method: (§1) DNA pools derived from each SELEX cycle were PCR amplified as described previously in the SELEX procedure. Complementary oligonucleotides for each individual SELEX-derived clone sequence were chemically synthesized (Sigma), heated to 95-100° C. for 5 min and left to cool to room temperature to anneal the oligonucleotides. DNAs were 5′-end labeled in a 50 μl reaction containing (final concentrations) 68 nM DNA substrate, 70 mM Tris-Cl pH 7.6, 10 mM MgCl₂, 5 mM DTT, 0.6 μCi ATP [γ-³²P] (Perkin Elmer, cat. no. BLU502Z500UC), and 0.2 U PNK (New England Biolabs Inc.). The reaction was incubated for 30 min at 37° C., followed by a 20 min incubation at 65° C. to heat inactivate the enzyme. The ³²P-labeled DNA was purified from the unincorporated ATP [γ-³²P] using Illustra ProbeQuant G-50 micro-columns (GE Healthcare). Approximately 13.6 nM radiolabeled DNA was incubated with varying concentrations of WT-EL222 in the same binding buffer used for SELEX procedure for 25 min at 4° C. with continuous illumination with a white LED light. Reactions were analyzed on a 5% native gel (Acrylamide/Bis 29:1) and run in TBE buffer at 150 V for 1.5 hr at 4° C. The gel was exposed to a PhosphorImaging plate and visualized using FujiFilm FLA-5100 imaging system.

The target of data set [2] is T1, EL222 (14-222) wild type. Put plainly: EMSA; light, 4 C, 3 mM MgCl2. Here is the method: as §1
In data set [3] the target is T1, EL222 (14-222) wild type. The data set is described as follows: EMSA; white LED light, 4 C, 10 mM Tris pH 8.0, 80 mM NaCl, 3 mM MgCl2. The procedure:
as §1
A general note: In EMSA bound probe runs differently from free probe, usually more slowly.

B1: Clone-22 (dsDNA)
DNA 1: TATAGGGCTTTAGTCTGTATGTGGGATGTGTGT
DNA 2: ACACACATCCCACATACAGACTAAAGCCCTATA
Regarding B1, the binding result with EL222 (14-222) wild type [1] is “binds”.

B2: Clone-53 (dsDNA)
DNA 1: CATGGCCTAAGGACTGTAAGTACTATTAAATAC
DNA 2: GTATTTAATAGTACTTACAGTCCTTAGGCCATG
As to B2, the binding result with EL222 (14-222) wild type [1] is “binds”.

B3: Clone-77 (dsDNA)
DNA 1: CAGATACATGCTTTAGTACGTATATTCGATGTC
DNA 2: GACATCGAATATACGTACTAAAGCATGTATCTG
Consider B3, for which the binding result with EL222 (14-222) wild type [1] was “binds”.

B4: C1-2 (dsDNA)
DNA 1: TAGGTAGCCTTTAGTCCATG
DNA 2: CATGGACTAAAGGCTACCTA
Regarding B4, in the data set with EL222 (14-222) wild type [2], the binding result is listed as “binds”.

B5: Clone-2 (dsDNA)
DNA 1: AGCTAGGCTTTTGGTCTGTATAGCTGTCTTATA
DNA 2: TATAAGACAGCTATACAGACCAAAAGCCTAGCT
On to B5, for which, in the data set with EL222 (14-222) wild type [1], the binding result is on record as “binds”.

B6: Clone-1 (dsDNA)
DNA 1: TCTACGTTATAGGTAGCCTTTAGTCCATGCTGATTCGTTTTCAAC
DNA 2: GTTGAAAACGAATCAGCATGGACTAAAGGCTACCTATAACGTAGA
As for B6, the binding result with EL222 (14-222) wild type [3] is “binds”.

B7: Clone-78 (dsDNA)
DNA 1: GCCCTAAGACTGTATCTTATTCGTGAGTTTTAA
DNA 2: TTAAAACTCACGAATAAGATACAGTCTTAGGGC
Turning to B7, the binding result in the data set with EL222 (14-222) wild type [1] is reported as “binds”.

B8: Clone-3 (dsDNA)
DNA 1: TAGACTTAAGTCTAGTACACAAGTTTTCCAGGG
DNA 2: CCCTGGAAAACTTGTGTACTAGACTTAAGTCTA
Take B8: the binding result with EL222 (14-222) wild type [1] is listed as “binds”.
